# Results as given in article PMC12048511, “An asymmetric nautilus-like HflK/C assembly controls FtsH proteolysis of membrane proteins” (The EMBO Journal, 2025).
# Target: T1, FtsH with a C-terminal FLAG epitope (chromosomally encoded) (E. coli, UniProt P0AAI3 1-644)
# T1 construct: FtsH, E. coli BL21(DE3), product of the chromosomal ftsH gene with a tag appended to its C-terminus; residues 31-97 (periplasmic domain) are modelled in PDB 9CZ2; Homohexamer; one or two hexamers per HflK/C assembly; also called FtsH-FLAG (C-terminal); tagged FtsH; source: E. coli BL21(DE3), chromosomal ftsH locus modified (no overproduction); anti-FLAG M2 resin from membranes solubilised with …
# Experiment: co-IP; anti-FLAG M2 resin on solubilised membranes of E. coli with chromosomally FLAG-tagged FtsH (1% DDM or 2% GDN; also detergent-free with Carboxy-DIBMA), eluted with FLAG peptide; no overproduction
# Details: partners not purified
# T1 sequence (P0AAI3 whole entry, the tested form may be a part): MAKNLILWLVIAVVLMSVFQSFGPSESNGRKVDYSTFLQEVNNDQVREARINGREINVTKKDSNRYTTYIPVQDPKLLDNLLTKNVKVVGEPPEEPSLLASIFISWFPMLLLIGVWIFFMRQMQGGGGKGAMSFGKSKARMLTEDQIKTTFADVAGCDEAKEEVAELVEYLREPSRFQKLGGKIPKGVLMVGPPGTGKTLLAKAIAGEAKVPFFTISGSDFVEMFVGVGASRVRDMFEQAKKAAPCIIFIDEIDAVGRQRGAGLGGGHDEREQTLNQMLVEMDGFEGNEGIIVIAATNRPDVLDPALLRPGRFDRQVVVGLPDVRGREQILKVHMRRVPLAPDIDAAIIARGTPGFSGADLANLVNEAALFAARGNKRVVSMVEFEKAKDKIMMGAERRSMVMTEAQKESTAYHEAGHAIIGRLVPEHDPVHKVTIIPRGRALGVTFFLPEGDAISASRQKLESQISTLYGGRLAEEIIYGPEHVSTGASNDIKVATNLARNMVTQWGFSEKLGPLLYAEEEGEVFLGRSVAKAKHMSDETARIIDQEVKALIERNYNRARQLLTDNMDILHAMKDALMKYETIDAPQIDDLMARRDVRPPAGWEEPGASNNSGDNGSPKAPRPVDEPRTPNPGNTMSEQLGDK
binder,measurement,value
"HflK (endogenous) (natural protein, E. coli (endogenous in BL21(DE3)), UniProt P0ABC7 1-419, looked up, HflK, E. coli BL21(DE3), SPFH-domain protein; residues 79-355 modelled for most subunits in PDB 9CZ2; 24 alternating HflK and HflC subunits form the nautilus-like assembly; also called HflK/C subunit; source: endogenous, E. coli BL21(DE3), co-purified with FtsH-FLAG on anti-FLAG resin) MAWNQPGNNGQDRDPWGSSKPGGNSEGNGNKGGRDQGPPDLDDIFRKLSKKLGGLGGGKGTGSGGGSSSQGPRPQLGGRVVTIAAAAIVIIWAASGFYTIKEAERGVVTRFGKFSHLVEPGLNWKPTFIDEVKPVNVEAVRELAASGVMLTSDENVVRVEMNVQYRVTNPEKYLYSVTSPDDSLRQATDSALRGVIGKYTMDRILTEGRTVIRSDTQRELEETIRPYDMGITLLDVNFQAARPPEEVKAAFDDAIAARENEQQYIREAEAYTNEVQPRANGQAQRILEEARAYKAQTILEAQGEVARFAKLLPEYKAAPEITRERLYIETMEKVLGNTRKVLVNDKGGNLMVLPLDQMLKGGNAPAAKSDNGASNLLRLPPASSSTTSGASNTSSTSQGDIMDQRRANAQRNDYQRQGE",binding result,binds
